Test results: the DeepSol protein solubility set

Assay: soluble on expression in E. coli; label from the status in PepcDB or PDB records
With “MKNIYVETYGCALNRADTYVMMTLLKSEGYNFVENPENADIIILNTCAVRLETEERMKQRIKELNTLSKKLVVAGCMSSAEPATVLSIAPNASLIGPQSVERIVDIVKSEERKIVIEGDRALITPRTFDGKIAIIPVADGCAGNCSFCITKLARRKLRSYPLREIVNAARDAIQSGAREIELTGQDTAAYGLDLGGSISLVDVVNKVADIDGDFMIRIGMMTPEQAMRIMDDLIEAIRNPKVYKFIHLPVQSGDDRVLKLMNRKYTVDEYKELISEIRHKIPFVNITTDIIVGHPGEDEEAFNNTLLLMKELRFERIHLAMYSIRPNTRSASMPQVPDSIKKKRIQIANKLYEDLALSIHLDYVGSTSRVITTELGRKGSVIGRLMNYIPVVIRSENVELGKWYDVKITEASFYDLRGILALEHHHHHH” the “soluble on expression in E. coli” value was “soluble”.
With “MKNREIYAEMRCIPPVVLRADGRNFKNTLSGLGFEKPYDTTFARAMADTAELFIKKSGLSPYFAYTFSDEISFLFTDLPFDGRVEKIDSVVASFLGSALTIKLRLEAPIAFDSRLVALQKEEVSEYFHWRQLEAWRNFVASWGYYSLRNEGMGKDEAGKFLKGKKEWEIHEMLFERGINLAALPAWQRRGIIISKEECEISGFNPVYGKEVKSMRRRITQNWEIPKFKSEEGITFLEKLINRNMAGDPLEHHHHHH” the “soluble on expression in E. coli” value was “not soluble”.
In the case of “MKNTFVYQAEKPVIKLLQITDPHLFKDESAELLGVNTQASFAQVLKEIQQENNEFDVILATGDLVQDSSDEGYIRFVEMMKPFNKPVFWIPGNHDFQPKMAEFLNQPPMNAAKHLLLGEHWQALLLDSQVYGVPHGQLSQHQLDLLKETLGKNPERYTLVVLHHHLLPTNSAWLDQHNLRNSHELAEVLAPFTNVKAILYGHIHQEVNSEWNGYQVMATPATCIQFKPDCQYFSLDTLQPGWREIELHSDGSIRTEVKRIQQAEFFPNMQEEGY”, the “soluble on expression in E. coli” value is reported as “not soluble”.
With “MKNWIVGMVALVTMVPVMAATPWQKITHPVAGSPQSIGGFANGCVIGAQPLPLESADYQVMRSDQRRYFGHPDLLNFIHRLSAQTHQQQLGTVLIGDMAMPAGGRFSSGHASHQSGLDVDIWLQLPKQRWSQQQLLKPQPIDLVAVDGKRVIPALWQPQIESLIKLAAKDNDVTRIFVNPAIKKQLCLDAGADRQWLHKVRPWFAHRAHMHVRLRCPANSLECVDQDTPPPGDGCGAELESWFQPPPPSAKPGKTLPPPLPPSCQALLDNHFATE” the “soluble on expression in E. coli” value was “not soluble”.
With “MKPATFKEAVVLYEGMIVNQIKKLGIRKDYEEYYQCGLIGLWHAYERFDEKKGYFPAYAVVTVRGYILERLKKEFAVQERCVCVGEYEDIFHFEDVEIRVKDFMSVLDEKEKYIIFERFFVGKTMGEIALETEMTYYQVRWMYRQALEKMRDSVKG” the “soluble on expression in E. coli” value was “not soluble”.
In the case of “MKPDAHQVKQFLLNLQDTICQQLTAVDGAEFVEDSWQREAGGGGRSRVLRNGGVFEQAGVNFSHVHGEAMPASATAHRPELAGRSFEAMGVSLVVHPHNPYVPTSHANVRFFIAEKPGAEPVWWFGGGFDLTPFYGFEEDAIHWHRTARDLCQPFGEDVYPRYKKWCDDYFYLKHRNEQRGIGGLFFDDLNTPDFDHCFAFMQAVGKGYTDAYLPIVERRKAMAYGERERNFQLYRRGRYVEFNLVWDRGTLFGLQTGGRTESILMSMPPLVRWEYDYQPKDGSPEAALSEFIKVRDWGLEHHHHHH”, the “soluble on expression in E. coli” value is reported as “not soluble”.
With “MKPICIIPARSGSKGLPDKNMLFLSGKPMIFHTIDAAIESGMFDKKDIFVSTDSELYREICLERGISVVMRKPELSTDQATSYDMLKDFLSDYEDNQEFVLLQVTSPLRKSWHIKEAMEYYSSHDVDNVVSFSEVEKHPSLFTTLSDEGYAIDMVGADKGYRRQDLQPLYYPNGAIFISNKETYLREKSFFTSRTYAYQMAKEFSLDVDTRDDFIHVIGHLFFDYAIREKENKVFYKEGYSRLFNREASKIILGDSKTISTSLESYHNYSQGGVTLATMLENLPNFLTANVTEAFVSIGVNDLITGYSVEEIFSNFQKLYSLLAENKIKMRLTTIAYTLFRETVNNADIEKINQWLTEFCYQNQIPLLDINRFLSKDGNLNYHLTSDGLHFTQEANDLLQSQYQLFVDEVKTLLEHHHHHH” the “soluble on expression in E. coli” value was “soluble”.
For “MKPSTSKTTHSPPPEEPTAPFVNDNLPNPEDEPTIGDLNAFHSGEELHRQRSELARANYEKARPEMIANQRAVTAHLFNRYTEDEERKRVEQQKNKEAMNASTSAPTSSRNGGQSVENRKRRNDVVVAPPTSEEEWKRAQQQHWMGQQQPQMQFQMQQQYHSQQQQYIMMQQQHHHMTGMQQIHHQMPSTSSADSIRSVPTPASSMHQPSPAEMRNGCGMSRNATMDMTCSPMSGGQPIVDENNLAVPEGEWFDKLALAVAEQYNVDTILGPDTYDTFLAELDFSSSESPTKQSPMEMNGDRMPSTAPPPAQNPQHIAQLQQQQNKMRLMQQQQQEMQRIEQQRRQQIMQQQQQQQQQEHQRQQMLLQQQQQQQQMQQHHQMNGGGQFATQAHQQAAYMQQMQRMEQIRHQQQQAQQHQQAQQQHQQQAQHHQMGYGIPNGYPQQMHMHPPAYGAHHMPQPTAFANIN”, the “soluble on expression in E. coli” value was “not soluble”.
With “MKQHCQKQSTARSTKLQYLAENQNDQPRLLAGSLSHGDSTTGPIKYKDGHQKRTTVVWDGQGTIRDETKSNIIKLTYLYLFPSCGAGSVRELVPFSSYHSFIVTHSTFNITMIALQSKCILPPCLPL” the “soluble on expression in E. coli” value was “not soluble”.
For “MKQLSGLLGELRQKLCAGFPEQAGIQQLIFPAPGLVGRQLLEWLTAQTHFPQFYWRHRDNHEEAAVCGQTRSFADMKDADDFIQQNPDANGLRIWGLNAFEPVMVFGQLTDNGLVSGKNAQASFLFLPRLEILRRGKKTSLTLNLSSETSLQKDALQAITFIDQLMAARALPVLNARIQHSSHTPGYPQWRNLIQQALNDIEQQKLDKVVLARTTTLTLNKPLSCAAFMAASRQVNHRCYHFMLRFDDRQAFLGSSPERLYLRQQLHLETEALAGTVSNLDSDPQAAVLADWLMHDEKNQRENLLVVDDICQRLQGGVTAVDVMPPEIIRLRKVQHLRRRICAQLSRASDTDCLQRLQPTAAVAGLPREAARQFIAKHELFSRGWYAGSAGYLSLKRTEFSVALRSARVDGQQIHLYAGAGIVAGSDAEQEWQEIDNKSAGLQSLLEHEAQPVKA”, the “soluble on expression in E. coli” value was “not soluble”.
With “MKQLSVSLAILCAVATSEAFAADELQQRAQGLFKPVPAKAPTLKGNPASPVKVELGKMLYFDPRLSASHLISCNTCHNVGLGGGDLQATSTGHGWQKGPRNAPTVLNSVFNTAQFWDGRAKDLAEQAKGPVQASVEMNNTPDQVVKTLNSIPDYVALFKKAFPGEKDPVTFDNMAKAIEVFEATLITPDSPFDQYLKGKKKALDGKQTAGLKLFLDKGCVACHGGLNLGGTGYFPFGVVEKPAENILPLGDKGRFAVTNTAKDEYVFRAPSLRNVAITYPYFHSGVVWSLKEAVAVMGSAQFGIKLSDDESEAIAAFLGSLTGKQPKVVYPIMPASTDATPRPRL” the “soluble on expression in E. coli” value was “soluble”.
For “MKQPTLAVIMTCHNRRNTTLACLQALYQQKNHFDVYLTDDGSTDGTAEFIKAEYPDVKIFQGDGNLFWVGGMHLAFGEAIKNQYDYYLWLNDDTFLEADALEKLLQVHENLAVEGYGQSIVVGSTQDPITKQATYGGAVKSKKWYSNKFEFLEPTSDVQKCDAMYGNCVLIPHSVTLKVGNIDTAFIHSLGDLDYALRARNLGLEHHHHHH”, the “soluble on expression in E. coli” value was “not soluble”.
With “MKQQEEHNNKIDLLEKQQAQLKSQLETIQKQQTGIISSTKTLTHVIKSVKDQQNTFIFTEFNPAKTKYFILNNGSVALAGRVLSIDATENGSVIHISLVNLLSTPISNIGFNATWGGEKPVDAKEFARWQQLLFNTSMKSTLKLLPGQWQDINLTLKGVSPNNLGYLKLAINMENIQFDNLPSAENRQKRSKK” the “soluble on expression in E. coli” value was “not soluble”.
For “MKQRQWQGWGPGEQAEQQHYLVQPRALAGGGDIRHVSEFLRASGWRDKSKTCGPLLMESPDRTVRVAYDPYILPGGWTIHGRTGAKGEWSAHLGLQTPVEIVAGLTDALTRPRSAHAPSVWEPLQEQNWHTRFADQNYTATSPDGAAWMQYRQDADGSAMWWTGAKDEEGNGWTAHFTPNTPMHLVQAFSTELAGPDPVMRPRGRVPHSAQIRTWSVSVKPSQLSAWQQARITAARAATWARSSTRGTRPRTTARPHTPTGGARTRRLEHHHHHH”, the “soluble on expression in E. coli” value was “not soluble”.
